Test results: patent publication US20240132579A1 (DOTBIO PTE, published 2024)

T1: biotinylated murine VEGF-164 (Acro Biosystem) (mouse, UniProt Q00731-2 27-190, biotinylated (site not stated))
T1 construct: also called Mouse VEGF164; murine VEGFA
T1 sequence (looked up): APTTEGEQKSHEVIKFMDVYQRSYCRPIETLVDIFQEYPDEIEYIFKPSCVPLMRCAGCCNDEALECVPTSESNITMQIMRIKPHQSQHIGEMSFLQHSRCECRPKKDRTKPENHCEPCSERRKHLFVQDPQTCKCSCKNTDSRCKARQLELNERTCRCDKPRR

T2: Human VEGF-121 (Acro Biosystems) (human, UniProt P15692 207-395)
T2 construct: Bought protein; also called human VEGFA
T2 sequence: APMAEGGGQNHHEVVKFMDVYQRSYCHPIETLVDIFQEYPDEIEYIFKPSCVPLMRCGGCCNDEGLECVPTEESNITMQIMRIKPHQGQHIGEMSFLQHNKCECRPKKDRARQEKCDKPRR

B1: anti-VEGFA DotBody 16C2.1 (VHH)
VHH: EVQLVESGGGLVQPGGSLRLSCAISGFSLAATDIDWVRQAPGKGLEWVARIFSPSDFTDYADSVKGRFTISADTSKNTVYLQMNSLRAEDTAVYYCGRPDTYAYNIFLDTPTYNALHYRGQGTLVTVSS
notes: Humanized, stabilized autonomous VH domain (single domain antibody, 'DotBody') derived from the trastuzumab VH
B2: anti-VEGFA DotBody 21A5.1 (VHH)
VHH: EVQLVESGGGLVQPGGSLRLSCAISGFSLVETDIDWVRQAPGKGLEWVARIFLPSGSTYYADSVKGRFTISADTSKNTVYLQMNSLRAEDTAVYYCGSPDTYAYNIFLDTPAYKGLSYRGQGTLVTVSS

Tests used:
[1] = target: T3, Biotinylated human VEGF-165 (Acro Biosystem) (human, UniProt P15692 207-395, biotinylated (site not stated)); assay: BLI, biotinylated VEGF on streptavidin tips, 1:1 global fit
T3 construct: Bought protein; also called human VEGFA
Experimental: (§1) Binding characterization was performed using BLI (Satorius) at RT with a 1000 rpm flow-rate. Biotinylated human VEGF-165 (Acro Biosystem) was immobilized onto Streptavidin-coated tips at a concentration of 3 μg/mL for 60 sec in BLI buffer (0.1% BSA and 0.01% Tween-20 in PBS). After a 30 sec baseline, anti-VEGFA DotBodies were associated at 8 different concentrations, including a blank reference, in BLI buffer for 60 sec, followed by a 400 sec dissociation in BLI buffer. The background buffer signal was subtracted using the 0 nM concentration reference, and the kinetics of binding were calculated using a global fit following a 1:1 binding model, using BLI Analysis Software. The bivalent molecule 16A2.1×2 was also characterized as described here, but with a 600 sec dissociation. To characterize the binding of all the clones against murine VEGFA, the same procedure was employed, but the immobilized target was replaced with biotinylated murine VEGF-164 (Acro Biosystem).

[2] = target: T1, biotinylated murine VEGF-164 (Acro …); assay: as above
Experimental: as §1

[3] = target: T2, Human VEGF-121 (Acro Biosystems); assay: competitive ELISA: inhibition of 0.5 nM human VEGF-121 binding to coated VEGFR1 (FIG. 4)
Experimental: (§2) To perform the competitive ELISA, the VEGFR1 was immobilized at a concentration of 2 μg/mL onto a Maxisorp 96-well plate (Thermo Scientific) overnight at 4° C., washed three times with PBS and blocked for 1 h at RT with ELISA Block Buffer (EBB: 0.2% BSA in PBST). […] The samples were incubated for 2 h at RT, and 50 μL transferred onto the VEGFR1-coated plate. After 2 h incubation, the plate was washed 3 times with PBST. 50 μL of streptavidin-HRP conjugate (Thermo Scientific) was added at a 1:5,000 dilution in EBB, and incubated for 1 h at RT. The plate was washed 5 times with PBST, and developed with 50 μL 3,3′,5,5′-Tetramethylbenzidine (TMB) substrate (GeneTex). After 5-15 min, the reactions were stopped by adding 50 μL of 2M H₂SO₄, and signal was measured at an absorbance of 450 nm.

[4] = target: T2, Human VEGF-121 (Acro Biosystems); assay: competitive ELISA: inhibition of 0.5 nM human VEGF-121 binding to coated VEGFR1 (FIG. 5)
Experimental: as §2

VEGFA = VEGFA (UniProt P15692-4 27-191, limits assumed); assay: method not stated

Row | Binder | Kd [1] [nM] | koff [1] [s⁻¹] | kon [1] [M⁻¹ s⁻¹] | Kd [2] [nM] | koff [2] [s⁻¹] | kon [2] [M⁻¹ s⁻¹] | IC50 [3] [nM] | IC50 [4] [nM] | Kd (VEGFA) [nM]
1 | B1 | 3 | 0.00032 | 106000 | 14.6 | 0.00173 | 118000 | 2.3 | 1.8 | < 5
2 | B2 | 3.37 | 0.000363 | 105000 | 15.3 | 0.00128 | 83600 | – | 12.8 | –
